# Article PMC9482650, “Quantitative fragmentomics allow affinity mapping of interactomes” (Nature Communications, 2022)
# Assays:
# Experiment in all cases: holdup assay
# Parameters in all cases: key: below the threshold = too weak to quantify, mostly under pKd 3.1 to 4
# MPP7, Q5T2T1 = molecular target: T1, MPP7, Q5T2T1
# T1 sequence (Q5T2T1 134-230, limits assumed, looked up): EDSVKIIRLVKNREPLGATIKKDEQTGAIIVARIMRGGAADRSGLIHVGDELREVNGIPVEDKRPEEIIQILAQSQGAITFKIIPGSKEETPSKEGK
# SNTB1, Q13884 = molecular target: T2, SNTB1, Q13884
# T2 sequence (Q13884 107-205, limits assumed, looked up): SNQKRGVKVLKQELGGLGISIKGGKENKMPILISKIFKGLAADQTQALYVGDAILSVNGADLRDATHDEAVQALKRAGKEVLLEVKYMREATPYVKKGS
# GRIP1_5, Q9Y3R0 = molecular target: T3, GRIP1_5, Q9Y3R0
# T3 sequence (Q9Y3R0 568-668, limits assumed, looked up): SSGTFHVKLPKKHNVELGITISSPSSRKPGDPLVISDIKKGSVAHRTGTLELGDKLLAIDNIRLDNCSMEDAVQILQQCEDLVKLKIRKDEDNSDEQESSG
# CARD11, Q9BXL7 = molecular target: T4, CARD11, Q9BXL7
# T4 sequence (Q9BXL7 662-765, limits assumed, looked up): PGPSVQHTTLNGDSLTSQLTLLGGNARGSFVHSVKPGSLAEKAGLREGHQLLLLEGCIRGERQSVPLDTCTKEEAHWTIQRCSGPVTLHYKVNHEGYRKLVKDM
# GRIP2_4, Q9C0E4 = molecular target: GRIP2_4, Q9C0E4
# HTRA3, P83110 = molecular target: T5, HTRA3, P83110
# T5 sequence (P83110 354-453, limits assumed, looked up): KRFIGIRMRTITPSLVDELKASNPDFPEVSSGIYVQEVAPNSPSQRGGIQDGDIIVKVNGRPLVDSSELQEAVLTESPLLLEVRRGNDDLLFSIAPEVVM
# LNX1_1, Q8TBB1 = molecular target: LNX1_1, Q8TBB1
# LNX2_3, Q8N448 = molecular target: T6, LNX2_3, Q8N448
# T6 sequence (Q8N448 463-564, limits assumed, looked up): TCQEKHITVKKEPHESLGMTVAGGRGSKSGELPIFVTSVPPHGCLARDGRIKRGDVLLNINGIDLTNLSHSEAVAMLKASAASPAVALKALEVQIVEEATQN
# LAP2, Q96RT1 = molecular target: LAP2, Q96RT1
# DVL3, Q92997 = molecular target: T7, DVL3, Q92997
# T7 sequence (Q92997 244-331, limits assumed, looked up): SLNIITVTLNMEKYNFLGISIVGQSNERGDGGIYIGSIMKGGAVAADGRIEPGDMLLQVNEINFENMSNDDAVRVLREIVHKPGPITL
# HTRA1, Q92743 = molecular target: HTRA1, Q92743
# FRMPD3, Q5JV73 = molecular target: FRMPD3, Q5JV73
# GRIP2_6, Q9C0E4 = molecular target: GRIP2_6, Q9C0E4
# TJP3_3, O95049 = molecular target: T8, TJP3_3, O95049
# T8 sequence (O95049 375-456, limits assumed, looked up): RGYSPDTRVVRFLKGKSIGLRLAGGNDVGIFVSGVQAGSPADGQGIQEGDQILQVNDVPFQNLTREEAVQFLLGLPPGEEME
# DLG2_2, Q15700 = molecular target: DLG2_2, Q15700
# PDZRN4_1, Q6ZMN7 = molecular target: PDZRN4_1, Q6ZMN7
# DLG4_3, P78352 = molecular target: DLG4_3, P78352
# GOPC, Q9HD26 = molecular target: GOPC, Q9HD26
# GORASP2, Q9H8Y8 = molecular target: GORASP2, Q9H8Y8
# LNX1_2, Q8TBB1 = molecular target: LNX1_2, Q8TBB1
# HTRA2, O43464 = molecular target: HTRA2, O43464
# MAGI3_2, Q5TCQ9 = molecular target: MAGI3_2, Q5TCQ9
# NHERF4_1, Q86UT5-2 = molecular target: NHERF4_1, Q86UT5-2
# LRRC7, Q96NW7 = molecular target: T9, LRRC7, Q96NW7
# T9 sequence (Q96NW7 1440-1537, limits assumed, looked up): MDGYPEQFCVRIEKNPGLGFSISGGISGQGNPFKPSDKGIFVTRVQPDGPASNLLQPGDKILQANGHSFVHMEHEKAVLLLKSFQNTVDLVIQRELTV
# TJP1_3, Q07157 = molecular target: TJP1_3, Q07157
# APBA3_1, O96018 = molecular target: T10, APBA3_1, O96018
# T10 sequence (O96018 389-490, limits assumed, looked up): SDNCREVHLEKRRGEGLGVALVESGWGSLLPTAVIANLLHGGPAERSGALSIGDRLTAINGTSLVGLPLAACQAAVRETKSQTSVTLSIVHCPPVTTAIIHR
# Inadl_6, Q8NI35 = molecular target: Inadl_6, Q8NI35
# [1] = plain residues with an end cap or a label only (N-terminal biotin on a linker: ttds)
# [2] = plain residues with an end cap or a label only (N-terminal biotin on a linker: ado-ado)
# Chain of NHERF4_1, Q86UT5-2 (Q86UT5 other isoform, or with tags, fused parts or gaps): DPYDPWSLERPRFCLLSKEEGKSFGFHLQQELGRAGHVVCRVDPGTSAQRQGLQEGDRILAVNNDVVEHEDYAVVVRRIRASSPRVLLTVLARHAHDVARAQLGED
# Chain of GRIP2_4, Q9C0E4 (Q9C0E4 446-548): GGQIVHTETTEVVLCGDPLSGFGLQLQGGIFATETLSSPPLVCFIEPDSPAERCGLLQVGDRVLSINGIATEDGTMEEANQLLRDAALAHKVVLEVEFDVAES
# Chain of DLG4_3, P78352 (P78352 306-403): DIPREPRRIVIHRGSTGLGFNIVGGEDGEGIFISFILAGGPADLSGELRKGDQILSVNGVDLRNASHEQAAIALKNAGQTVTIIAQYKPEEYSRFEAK
# Chain of FRMPD3, Q5JV73 (Q5JV73 12-100): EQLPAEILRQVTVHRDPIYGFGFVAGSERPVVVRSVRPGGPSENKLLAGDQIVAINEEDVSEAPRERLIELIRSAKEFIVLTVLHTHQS
# Chain of GRIP2_6, Q9C0E4 (Q9C0E4 648-740): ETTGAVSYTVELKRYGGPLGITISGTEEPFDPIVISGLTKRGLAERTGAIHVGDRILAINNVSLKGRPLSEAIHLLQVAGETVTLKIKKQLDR
# Chain of TJP1_3, Q07157 (Q07157 416-512): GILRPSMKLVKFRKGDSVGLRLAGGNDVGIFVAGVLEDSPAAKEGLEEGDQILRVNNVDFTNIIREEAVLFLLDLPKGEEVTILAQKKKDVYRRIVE
# Chain of DLG2_2, Q15700 (Q15700 189-283): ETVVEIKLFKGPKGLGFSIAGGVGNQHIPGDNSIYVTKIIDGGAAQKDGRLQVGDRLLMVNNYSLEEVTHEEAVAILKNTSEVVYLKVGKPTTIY
# Chain of HTRA1, Q92743 (Q92743 360-477): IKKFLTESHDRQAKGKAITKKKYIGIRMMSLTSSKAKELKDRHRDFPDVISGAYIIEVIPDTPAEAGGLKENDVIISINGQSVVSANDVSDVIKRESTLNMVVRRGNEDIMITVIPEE
# Chain of MAGI3_2, Q5TCQ9 (Q5TCQ9 398-503): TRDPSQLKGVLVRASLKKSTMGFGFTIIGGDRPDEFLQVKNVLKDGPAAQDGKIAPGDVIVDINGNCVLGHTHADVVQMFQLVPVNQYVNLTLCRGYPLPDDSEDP
# Chain of LNX1_2, Q8TBB1 (Q8TBB1 371-470): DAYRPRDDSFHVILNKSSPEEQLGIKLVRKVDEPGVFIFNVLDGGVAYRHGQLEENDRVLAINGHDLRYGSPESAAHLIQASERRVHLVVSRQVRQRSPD
# Chain of HTRA2, O43464 (O43464 355-458): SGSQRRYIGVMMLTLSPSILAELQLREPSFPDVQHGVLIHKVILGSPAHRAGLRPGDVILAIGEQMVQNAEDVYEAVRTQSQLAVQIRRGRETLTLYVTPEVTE
# Chain of PDZRN4_1, Q6ZMN7 (Q6ZMN7 213-318): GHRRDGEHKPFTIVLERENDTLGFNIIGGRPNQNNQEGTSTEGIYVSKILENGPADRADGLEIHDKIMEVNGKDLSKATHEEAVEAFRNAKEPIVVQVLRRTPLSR
# Chain of Inadl_6, Q8NI35 (Q8NI35 1058-1167): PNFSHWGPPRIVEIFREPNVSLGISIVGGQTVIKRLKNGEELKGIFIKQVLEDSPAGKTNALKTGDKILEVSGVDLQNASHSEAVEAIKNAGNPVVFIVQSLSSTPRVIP
# Chain of LNX1_1, Q8TBB1 (Q8TBB1 261-371): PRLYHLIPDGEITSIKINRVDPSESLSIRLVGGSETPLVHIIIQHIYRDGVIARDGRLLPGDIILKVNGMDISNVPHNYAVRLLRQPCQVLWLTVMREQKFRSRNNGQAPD
# Chain of LAP2, Q96RT1 (Q96RT1 other isoform, or with tags, fused parts or gaps): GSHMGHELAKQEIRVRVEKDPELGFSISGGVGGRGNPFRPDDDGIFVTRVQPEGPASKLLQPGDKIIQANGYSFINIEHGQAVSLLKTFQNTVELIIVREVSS
binder,measurement,setting,value
"PKRPFVESNV [TANC2, Q9HCD6]",pKd,"MPP7, Q5T2T1; [1]",below the threshold
same,pKd,"SNTB1, Q13884; [1]",4.49
same,pKd,"GRIP1_5, Q9Y3R0; [1]",below the threshold
same,pKd,"CARD11, Q9BXL7; [1]",below the threshold
same,pKd,"GRIP2_4, Q9C0E4; [1]",below the threshold
same,pKd,"HTRA3, P83110; [1]",below the threshold
same,pKd,"LNX1_1, Q8TBB1; [1]",3.57
same,pKd,"LNX2_3, Q8N448; [1]",below the threshold
same,pKd,"LAP2, Q96RT1; [1]",4.74
same,pKd,"DVL3, Q92997; [1]",below the threshold
same,pKd,"HTRA1, Q92743; [1]",below the threshold
same,pKd,"FRMPD3, Q5JV73; [1]",below the threshold
same,pKd,"GRIP2_6, Q9C0E4; [1]",below the threshold
same,pKd,"TJP3_3, O95049; [1]",below the threshold
same,pKd,"DLG2_2, Q15700; [1]",4.33
same,pKd,"PDZRN4_1, Q6ZMN7; [1]",below the threshold
same,pKd,"DLG4_3, P78352; [1]",below the threshold
same,pKd,"GOPC, Q9HD26; [1]",below the threshold
same,pKd,"GORASP2, Q9H8Y8; [1]",below the threshold
same,pKd,"LNX1_2, Q8TBB1; [1]",below the threshold
same,pKd,"HTRA2, O43464; [1]",below the threshold
same,pKd,"MAGI3_2, Q5TCQ9; [1]",4.55
same,pKd,"NHERF4_1, Q86UT5-2; [1]",below the threshold
same,pKd,"LRRC7, Q96NW7; [1]",4.05
same,pKd,"TJP1_3, Q07157; [1]",below the threshold
same,pKd,"APBA3_1, O96018; [1]",below the threshold
same,pKd,"Inadl_6, Q8NI35; [1]",below the threshold
"GFGEERESIL [KIDINS220, Q9ULH0]",pKd,"MPP7, Q5T2T1; [2]",below the threshold
same,pKd,"SNTB1, Q13884; [2]",5.4
same,pKd,"GRIP1_5, Q9Y3R0; [2]",below the threshold
same,pKd,"CARD11, Q9BXL7; [2]",below the threshold
same,pKd,"GRIP2_4, Q9C0E4; [2]",below the threshold
same,pKd,"HTRA3, P83110; [2]",below the threshold
same,pKd,"LNX1_1, Q8TBB1; [2]",3.88
same,pKd,"LNX2_3, Q8N448; [2]",below the threshold
same,pKd,"LAP2, Q96RT1; [2]",below the threshold
same,pKd,"DVL3, Q92997; [2]",below the threshold
same,pKd,"HTRA1, Q92743; [2]",4.6
same,pKd,"FRMPD3, Q5JV73; [2]",below the threshold
same,pKd,"GRIP2_6, Q9C0E4; [2]",below the threshold
same,pKd,"TJP3_3, O95049; [2]",below the threshold
same,pKd,"DLG2_2, Q15700; [2]",below the threshold
same,pKd,"PDZRN4_1, Q6ZMN7; [2]",4.61
same,pKd,"DLG4_3, P78352; [2]",below the threshold
same,pKd,"GOPC, Q9HD26; [2]",3.55
same,pKd,"GORASP2, Q9H8Y8; [2]",below the threshold
same,pKd,"LNX1_2, Q8TBB1; [2]",below the threshold
same,pKd,"HTRA2, O43464; [2]",below the threshold
same,pKd,"MAGI3_2, Q5TCQ9; [2]",below the threshold
same,pKd,"NHERF4_1, Q86UT5-2; [2]",3.77
same,pKd,"LRRC7, Q96NW7; [2]",below the threshold
same,pKd,"TJP1_3, Q07157; [2]",below the threshold
same,pKd,"APBA3_1, O96018; [2]",below the threshold
same,pKd,"Inadl_6, Q8NI35; [2]",4.1
"VNKVWDQSSV [CIT, O14578]",pKd,"MPP7, Q5T2T1; [1]",below the threshold
same,pKd,"SNTB1, Q13884; [1]",below the threshold
same,pKd,"GRIP1_5, Q9Y3R0; [1]",below the threshold
same,pKd,"CARD11, Q9BXL7; [1]",below the threshold
same,pKd,"GRIP2_4, Q9C0E4; [1]",below the threshold
same,pKd,"HTRA3, P83110; [1]",below the threshold
same,pKd,"LNX1_1, Q8TBB1; [1]",below the threshold
same,pKd,"LNX2_3, Q8N448; [1]",below the threshold
same,pKd,"LAP2, Q96RT1; [1]",4.04
same,pKd,"DVL3, Q92997; [1]",below the threshold
same,pKd,"HTRA1, Q92743; [1]",below the threshold
same,pKd,"FRMPD3, Q5JV73; [1]",below the threshold
same,pKd,"GRIP2_6, Q9C0E4; [1]",below the threshold
same,pKd,"TJP3_3, O95049; [1]",below the threshold
same,pKd,"DLG2_2, Q15700; [1]",below the threshold
same,pKd,"PDZRN4_1, Q6ZMN7; [1]",below the threshold
same,pKd,"DLG4_3, P78352; [1]",3.62
same,pKd,"GOPC, Q9HD26; [1]",3.77
same,pKd,"GORASP2, Q9H8Y8; [1]",below the threshold
same,pKd,"LNX1_2, Q8TBB1; [1]",below the threshold
same,pKd,"HTRA2, O43464; [1]",below the threshold
same,pKd,"MAGI3_2, Q5TCQ9; [1]",below the threshold
same,pKd,"NHERF4_1, Q86UT5-2; [1]",below the threshold
same,pKd,"LRRC7, Q96NW7; [1]",below the threshold
same,pKd,"TJP1_3, Q07157; [1]",below the threshold
same,pKd,"APBA3_1, O96018; [1]",below the threshold
same,pKd,"Inadl_6, Q8NI35; [1]",below the threshold
"SEKHFRETEV [HTLV1-TAX1, P03409]",pKd,"MPP7, Q5T2T1; [1]",below the threshold
same,pKd,"SNTB1, Q13884; [1]",6.12
same,pKd,"GRIP1_5, Q9Y3R0; [1]",below the threshold
same,pKd,"CARD11, Q9BXL7; [1]",below the threshold
same,pKd,"GRIP2_4, Q9C0E4; [1]",below the threshold
same,pKd,"HTRA3, P83110; [1]",below the threshold
same,pKd,"LNX1_1, Q8TBB1; [1]",3.89
same,pKd,"LNX2_3, Q8N448; [1]",below the threshold
same,pKd,"LAP2, Q96RT1; [1]",4.99
same,pKd,"DVL3, Q92997; [1]",3.62
same,pKd,"HTRA1, Q92743; [1]",3.97
same,pKd,"FRMPD3, Q5JV73; [1]",below the threshold
same,pKd,"GRIP2_6, Q9C0E4; [1]",below the threshold
same,pKd,"TJP3_3, O95049; [1]",below the threshold
same,pKd,"DLG2_2, Q15700; [1]",5.21
same,pKd,"PDZRN4_1, Q6ZMN7; [1]",4.9
same,pKd,"DLG4_3, P78352; [1]",5.34
same,pKd,"GOPC, Q9HD26; [1]",below the threshold
same,pKd,"GORASP2, Q9H8Y8; [1]",below the threshold
same,pKd,"LNX1_2, Q8TBB1; [1]",3.71
same,pKd,"HTRA2, O43464; [1]",below the threshold
same,pKd,"MAGI3_2, Q5TCQ9; [1]",4.99
same,pKd,"NHERF4_1, Q86UT5-2; [1]",below the threshold
same,pKd,"LRRC7, Q96NW7; [1]",4.69
same,pKd,"TJP1_3, Q07157; [1]",below the threshold
same,pKd,"APBA3_1, O96018; [1]",below the threshold
same,pKd,"Inadl_6, Q8NI35; [1]",3.69
